This is an account of results in article PMC7764960, “Nucleus Accumbens-Associated Protein 1 Binds DNA Directly through the BEN Domain in a Sequence-Specific Manner”.

In series [1] the target is T1, NAC1 (322-485) (Homo sapiens, UniProt Q96RE7 322-485).
T1 sequence: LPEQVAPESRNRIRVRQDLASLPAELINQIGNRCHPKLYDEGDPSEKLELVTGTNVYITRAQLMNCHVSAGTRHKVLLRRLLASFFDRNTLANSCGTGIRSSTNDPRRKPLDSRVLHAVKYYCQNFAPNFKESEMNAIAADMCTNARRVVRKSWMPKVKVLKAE
Nature of the series: ITC; single event; Table S2 prints 0.83; ITC: 20 mM HEPES pH 7.0, 0.1 M NaCl, 1 mM TCEP, 20 C (Fig 2 legend says 25 C); pull-down: 4 C with 10 ug poly(dI/dC), buffer not stated; NMR 298 K. Conditions: protein: recombinant; tags: His (pET28HisTEV); blunt.

The next series deals with T2, GST-NAC1 (Homo sapiens, UniProt Q96RE7 2-527).
T2 sequence: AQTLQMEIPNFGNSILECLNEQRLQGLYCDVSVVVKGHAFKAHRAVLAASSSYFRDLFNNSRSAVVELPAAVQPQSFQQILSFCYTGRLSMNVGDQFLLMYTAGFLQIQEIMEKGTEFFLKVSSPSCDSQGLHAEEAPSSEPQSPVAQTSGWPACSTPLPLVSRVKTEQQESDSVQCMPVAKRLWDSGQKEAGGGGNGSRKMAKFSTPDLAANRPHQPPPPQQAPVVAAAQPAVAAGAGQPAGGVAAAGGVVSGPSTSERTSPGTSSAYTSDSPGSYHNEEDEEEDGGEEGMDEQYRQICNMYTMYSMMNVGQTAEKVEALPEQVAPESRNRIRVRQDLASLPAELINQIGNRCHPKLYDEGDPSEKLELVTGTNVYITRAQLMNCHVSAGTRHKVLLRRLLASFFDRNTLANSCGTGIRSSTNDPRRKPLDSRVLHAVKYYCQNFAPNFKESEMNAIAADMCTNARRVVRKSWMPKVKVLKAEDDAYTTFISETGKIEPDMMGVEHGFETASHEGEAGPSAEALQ
Nature of the series: pull-down; poly(dI/dC); ITC: 20 mM HEPES pH 7.0, 0.1 M NaCl, 1 mM TCEP, 20 C (Fig 2 legend says 25 C); pull-down: 4 C with 10 ug poly(dI/dC), buffer not stated; NMR 298 K. Conditions: protein: recombinant; tags: GST N-term; chain copies: 2; label: 5' biotin on sense strand; blunt.

The target of series [2] is T1, NAC1 (322-485). The series is described as follows: ITC; single event; ITC: 20 mM HEPES pH 7.0, 0.1 M NaCl, 1 mM TCEP, 20 C (Fig 2 legend says 25 C); pull-down: 4 C with 10 ug poly(dI/dC), buffer not stated; NMR 298 K. The note with it: protein: recombinant; tags: His (pET28HisTEV); blunt.
In series [3] the target is T1, NAC1 (322-485). The series is described as follows: ITC; first of two sequential events (Kd1); ITC: 20 mM HEPES pH 7.0, 0.1 M NaCl, 1 mM TCEP, 20 C (Fig 2 legend says 25 C); pull-down: 4 C with 10 ug poly(dI/dC), buffer not stated; NMR 298 K. Conditions: protein: recombinant; tags: His (pET28HisTEV); blunt. (ITC needs no label: the signal is the heat of the interaction.)

B1: de novo motif 2 (dsDNA)
DNA 1: AACCCCGCCCCAA
DNA 2: TTGGGGCGGGGTT
As for B1, the Kd (in general, the free concentration of one partner at which half of the binding sites on the other are occupied at equilibrium, for simple one-to-one binding) with NAC1 (322-485) [1] turned out to be 820 nM.

B2: Biotin-GP1 3'-mut (dsDNA)
DNA 1: TGTGTGTGTATGCATGACGGTATTTATT
DNA 2: AATAAATACCGTCATGCATACACACACA
In the case of B2, the binding result with GST-NAC1 is “binds”.

B3: Biotin-GP1 (dsDNA)
DNA 1: TGTGTGTGTATGCATGTATGTATTTATT
DNA 2: AATAAATACATACATGCATACACACACA
For the molecule B3, in the series with GST-NAC1, the binding result is given as “binds”.

B4: de novo motif 1 (dsDNA)
DNA 1: AACCGCCGCCAA
DNA 2: TTGGCGGCGGTT
Regarding B4, in the series with NAC1 (322-485) [2], the Kd was found to be 3000 nM.

B5: GP1 14-mer dsDNA (dsDNA)
DNA 1: GTATGCATGTATGT
DNA 2: ACATACATGCATAC
Take B5: the Kd in the series with NAC1 (322-485) [3] is 160 nM.

B6: Biotin-GP1 5'-mut (dsDNA)
DNA 1: TGTGTGTGTCATCATGTATGTATTTATT
DNA 2: AATAAATACATACATGATGACACACACA
Turning to B6, the binding result with GST-NAC1 is recorded as “binds”.
